Data taken from the RNAGym collection of RNA variant scans (doi:10.1073/pnas.2313332121).

B1: TPR t1 (parent)
chain: GACCAAUCUGCCCUCAGAGCUCGAGAACAUCUUCGGAUGCAGAGGAGGCAGGCUUCGGUGGCGCGAUAGCGCCAACGUCCUCAACCUCCAAUGCAUCCCACCACAUGAUGAUGCCUGAAGAGCCUUGGUUUUUUG

Variants of: B1
Assay: polymerase ribozyme fitness, log enrichment relative to wild type (log ratio); higher = more active; in vitro selection for triplet polymerase activity
Procedure, shortened: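 Each subunit of a heterodimeric triplet polymerase ribozyme was mutagenized into a library by PCR, transcribed, and subjected to one round of in vitro selection, run in triplicate. Libraries were annealed with a biotinylated primer, the partner subunit and triplets, incubated frozen at −7 °C, and extended constructs were gel-excised, captured on streptavidin beads and recovered by RT-PCR. Input and output libraries were sequenced on Illumina, keeping genotypes with ≥10 input reads and ≥1 read per output. Fitness is log base 2 of genotype enrichment divided by wild-type enrichment, from inverse-variance-weighted replicate averages.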

Point of comparison: A16U C114U, “polymerase ribozyme fitness (log ratio)” value -4.86. Against it:
- C15U G71A C79U — higher, -1.53
- C15U G71U C101U — higher, -1.24
- C15U G110C — higher, -4.52
- C15U G127A U129A — higher, -4.11
- C15U U21A U96G A118U — higher, -0.0472
- C15U U21C C49G G117A — higher, 0.389
- C15U U33G G61U U87A U112C — within 0.2 log units, -4.85
- C15U U38G G45A G60C A74U — higher, -4.34
- C15U U54G — higher, -1.23
- C15U U55G G69A — higher, -3.22
- C15U U78G C86U G113C — lower, -5.8
- C15U U129C — higher, -1.86
- C15U U130A — higher, -1.54
- A16C A37C U112C — higher, -2.37
- A16C A41U G52C C64G C82G G110C — lower, -6.92
- A16C A50U — higher, -4.64
- A16C C22U G60C G93C A118U A121G — lower, -6.04
- A16C C40U G52A U59G U112A — higher, -1.53
- A16C C49A A74C C88A U116C — higher, -3.06
- A16C C53U C86G — higher, -2.99
- A16C C56A C97G — lower, -5.42
- A16C C56U A84C C85U A100C — within 0.2 log units, -4.89
- A16C C72G C82G G120C — higher, -1.82
- A16C C82G — higher, -3.22
- A16C C82G G120C — higher, -1.47
- A16C C97U A100U — higher, -3.88
- A16C G25U A26G — within 0.2 log units, -4.77
- A16C G48A C73U — higher, -3.7
- A16C G52A C70U C73U — higher, -3.8
- A16C G60C A111G — higher, -1.81
- A16C G71C U126C U131A — higher, -4.45
- A16C G117U A121C — higher, -4.48
- A16C U38G C70A — higher, -4.31
- A16C U106A — higher, -2.82
- A16G A27C C72U C123U — higher, -3.64
- A16G A27G U32C A50G — higher, -4.47
- A16G A41U G60U C86G C124G — higher, -2.13
- A16G A46C G120C — higher, -0.418
- A16G A50U U81G — higher, -2.01
- A16G A84U A90C — higher, -2.9
- A16G C28U U54G A121G — higher, -0.979
- A16G C53G A84C C88A C101G — higher, -4.3
- A16G C62U — higher, -1.57
- A16G C70U C76A — higher, -2.84
- A16G C94A A95U — higher, -4.15
- A16G C94U — higher, -1.93
- A16G G35A A37G A84U A121G — higher, -3.58
- A16G G35U C49G C115A A119G A121U — higher, -4.09
- A16G G42U C49A C56U G61A U96G U109G U134A — within 0.2 log units, -5.05
- A16G G42U C102U C124G — higher, -3.81
- A16G G44U G117A — higher, -3.84
- A16G G51C C82A C124G — higher, -3.19
- A16G G61C A84C G117A A119G — higher, -2.13
- A16G G61C C72U U81A U106A U116C — higher, 1.38
- A16G G71C C124A U130A — higher, 0.62
- A16G G113A — higher, -2.04
- A16G G113C — higher, -3.85
- A16G U32A A50C C88U C123G U125A — higher, -3.77
- A16G U92C C102A — lower, -5.14
- A16G U92C U129C — higher, -3.37
- A16G U106A — higher, -0.109
- A16G U112A A119G — higher, 2.06
- A16U A18C C86A — within 0.2 log units, -4.71
- A16U A18G — higher, -3.02
- A16U A37G G113A — within 0.2 log units, -4.83
- A16U A41C G57A A84U — higher, -3.81
- A16U A50C — higher, -2.04
- A16U A50G G58A G60A C64U — higher, -3.73
- A16U C22U C62U U78C U92G G120A C123A — lower, -6.53
- A16U C40A G51A U92C G113C U116C G117C — lower, -6.65
- A16U C49A C72A — higher, -1.6
- A16U C49A G51U U55G U126G G128U — lower, -5.16
- A16U C53G U96G U112A G128C — higher, -3.45
- A16U C56A G117U — higher, -3.11
- A16U C62U — higher, -1.92
- A16U C70A — higher, -3.19
- A16U C70U G117U C123A — higher, -4.02
- A16U C79G — higher, -2.59
- A16U C79U A91G C123G U131G — higher, -1.49
- A16U C102U — higher, -3.23
- A16U C124U — higher, 0.484
- A16U C124U U129G — higher, 0.0068
- A16U G17A C20A C49A C73U — within 0.2 log units, -4.77
